Data published in FireProtDB (doi:10.1002/prot.340220405).

B1: Chemotaxis protein CheY, P0AE67 (parent)
chain: MADKELKFLVVDDFSTMRRIVRNLLKELGFNNVEEAEDGVDALNKLQAGGYGFVISDWNMPNMDGLELLKTIRADGAMSALPVLMVTAEAKKENIIAAAQAGASGYVVKPFTAATLEEKLNKIFEKLGM

Variants of: B1
Settings: Escherichia coli (strain K12); pH 8; 25 °C; Urea; CD; Na-PIPES 50 mM; reversible: yes; structure 1CEY; whole UniProt chain shown

In the case of A36G F14N, the “ddG of mutation (higher = less stable)” value is reported as 0.2 kcal/mol, the denaturant m value is reported as 1.6 kcal/mol/M and the “denaturant midpoint (higher = more stable)” value (“denaturant midpoint” below) is reported as 3.41 M. For the same variant, the unfolding free energy was 5.4 kcal/mol.

With D64G F14N the “ddG of mutation (higher = less stable)” value was -2.6 kcal/mol, the denaturant m value was 1.72 kcal/mol/M and the “denaturant midpoint” value was 4.77 M. The unfolding free energy was 8.2 kcal/mol.

For A77G, the “ddG of mutation (higher = less stable)” value was 0.3 kcal/mol, the denaturant m value was 1.56 kcal/mol/M and the “denaturant midpoint” value was 3.32 M. It also gave an unfolding free energy of 5.3 kcal/mol.

With A98G F14N the “ddG of mutation (higher = less stable)” value was -1.6 kcal/mol, the denaturant m value was 1.76 kcal/mol/M and the “denaturant midpoint” value was 4.09 M. For the same variant, the unfolding free energy was 7.2 kcal/mol.

In the case of A103G F14N, the “ddG of mutation (higher = less stable)” value is reported as -1.2 kcal/mol, the denaturant m value is reported as 1.75 kcal/mol/M and the “denaturant midpoint” value is reported as 3.89 M. The unfolding free energy was 6.8 kcal/mol.

For G76A F14N, the “ddG of mutation (higher = less stable)” value was -3.4 kcal/mol, the denaturant m value was 1.77 kcal/mol/M and the “denaturant midpoint” value was 5.08 M. The unfolding free energy was 9 kcal/mol.

With A74G the “ddG of mutation (higher = less stable)” value was 0.3 kcal/mol, the denaturant m value was 1.6 kcal/mol/M and the “denaturant midpoint” value was 3.32 M. It also gave an unfolding free energy of 5.3 kcal/mol.

With A42G F14N the “ddG of mutation (higher = less stable)” value was -0.6 kcal/mol, the denaturant m value was 1.73 kcal/mol/M and the “denaturant midpoint” value was 3.58 M. It also gave an unfolding free energy of 6.2 kcal/mol.

For D64A F14N, the “ddG of mutation (higher = less stable)” value was -1.7 kcal/mol, the denaturant m value was 1.69 kcal/mol/M and the “denaturant midpoint” value was 4.32 M. It also gave an unfolding free energy of 7.3 kcal/mol.

In the case of A80G, the “ddG of mutation (higher = less stable)” value is reported as -0.6 kcal/mol, the denaturant m value is reported as 1.68 kcal/mol/M and the “denaturant midpoint” value is reported as 3.65 M. The unfolding free energy was 6.2 kcal/mol.

In the case of D38A F14N, the “ddG of mutation (higher = less stable)” value is reported as -1 kcal/mol, the denaturant m value is reported as 1.87 kcal/mol/M and the “denaturant midpoint” value is reported as 3.58 M. The unfolding free energy was 6.6 kcal/mol.

In the case of F14N, the “ddG of mutation (higher = less stable)” value is reported as -2.9 kcal/mol, the denaturant m value is reported as 1.8 kcal/mol/M and the “denaturant midpoint” value is reported as 4.72 M. For the same variant, the unfolding free energy was 8.5 kcal/mol.

With D38G F14N the “ddG of mutation (higher = less stable)” value was -1.9 kcal/mol, the denaturant m value was 1.81 kcal/mol/M and the “denaturant midpoint” value was 4.14 M. It also gave an unfolding free energy of 7.5 kcal/mol.

With A88G the “ddG of mutation (higher = less stable)” value was -0.1 kcal/mol, the denaturant m value was 1.64 kcal/mol/M and the “denaturant midpoint” value was 3.48 M. For the same variant, the unfolding free energy was 5.7 kcal/mol.

In the case of T112A F14N, the “ddG of mutation (higher = less stable)” value is reported as -1.4 kcal/mol, the denaturant m value is reported as 1.68 kcal/mol/M and the “denaturant midpoint” value is reported as 4.12 M. It also gave an unfolding free energy of 7 kcal/mol.

With A99G the “ddG of mutation (higher = less stable)” value was 0.5 kcal/mol, the denaturant m value was 1.58 kcal/mol/M and the “denaturant midpoint” value was 3.23 M. The unfolding free energy was 5.1 kcal/mol.

With A114G the “ddG of mutation (higher = less stable)” value was 0.5 kcal/mol, the denaturant m value was 1.6 kcal/mol/M and the “denaturant midpoint” value was 3.2 M. It also gave an unfolding free energy of 5.1 kcal/mol.

In the case of A97G F14N, the “ddG of mutation (higher = less stable)” value is reported as -1.5 kcal/mol, the denaturant m value is reported as 1.77 kcal/mol/M and the “denaturant midpoint” value is reported as 4 M. For the same variant, the unfolding free energy was 7.1 kcal/mol.

With K91A F14N the “ddG of mutation (higher = less stable)” value was -3.3 kcal/mol, the denaturant m value was 1.86 kcal/mol/M and the “denaturant midpoint” value was 4.8 M. The unfolding free energy was 8.9 kcal/mol.

In the case of T112G F14N, the “ddG of mutation (higher = less stable)” value is reported as -1.9 kcal/mol, the denaturant m value is reported as 1.68 kcal/mol/M and the “denaturant midpoint” value is reported as 4.46 M. For the same variant, the unfolding free energy was 7.5 kcal/mol.
